The results in this text go back to publication PMC12192683.

This assay has as its target low-density lipoprotein receptor-related protein 1 (LRP1), full-length, purified from human placenta (human) (UniProt Q07954). In words: SPR; LRP1 amine-coupled to CM5 chip; RBD or alkylated RBD flowed in HBS-P with 1 mM CaCl2, 25 C; equilibrium analysis (Req against concentration, single class of sites) and single injections of 1 uM. A general note: In SPR one partner is held on a chip, and binding of the other changes the refractive index at the surface.

Sequence of low-density lipoprotein receptor-related protein 1 (LRP1), full-length, purified from human placenta (human) (Q07954 20-4544): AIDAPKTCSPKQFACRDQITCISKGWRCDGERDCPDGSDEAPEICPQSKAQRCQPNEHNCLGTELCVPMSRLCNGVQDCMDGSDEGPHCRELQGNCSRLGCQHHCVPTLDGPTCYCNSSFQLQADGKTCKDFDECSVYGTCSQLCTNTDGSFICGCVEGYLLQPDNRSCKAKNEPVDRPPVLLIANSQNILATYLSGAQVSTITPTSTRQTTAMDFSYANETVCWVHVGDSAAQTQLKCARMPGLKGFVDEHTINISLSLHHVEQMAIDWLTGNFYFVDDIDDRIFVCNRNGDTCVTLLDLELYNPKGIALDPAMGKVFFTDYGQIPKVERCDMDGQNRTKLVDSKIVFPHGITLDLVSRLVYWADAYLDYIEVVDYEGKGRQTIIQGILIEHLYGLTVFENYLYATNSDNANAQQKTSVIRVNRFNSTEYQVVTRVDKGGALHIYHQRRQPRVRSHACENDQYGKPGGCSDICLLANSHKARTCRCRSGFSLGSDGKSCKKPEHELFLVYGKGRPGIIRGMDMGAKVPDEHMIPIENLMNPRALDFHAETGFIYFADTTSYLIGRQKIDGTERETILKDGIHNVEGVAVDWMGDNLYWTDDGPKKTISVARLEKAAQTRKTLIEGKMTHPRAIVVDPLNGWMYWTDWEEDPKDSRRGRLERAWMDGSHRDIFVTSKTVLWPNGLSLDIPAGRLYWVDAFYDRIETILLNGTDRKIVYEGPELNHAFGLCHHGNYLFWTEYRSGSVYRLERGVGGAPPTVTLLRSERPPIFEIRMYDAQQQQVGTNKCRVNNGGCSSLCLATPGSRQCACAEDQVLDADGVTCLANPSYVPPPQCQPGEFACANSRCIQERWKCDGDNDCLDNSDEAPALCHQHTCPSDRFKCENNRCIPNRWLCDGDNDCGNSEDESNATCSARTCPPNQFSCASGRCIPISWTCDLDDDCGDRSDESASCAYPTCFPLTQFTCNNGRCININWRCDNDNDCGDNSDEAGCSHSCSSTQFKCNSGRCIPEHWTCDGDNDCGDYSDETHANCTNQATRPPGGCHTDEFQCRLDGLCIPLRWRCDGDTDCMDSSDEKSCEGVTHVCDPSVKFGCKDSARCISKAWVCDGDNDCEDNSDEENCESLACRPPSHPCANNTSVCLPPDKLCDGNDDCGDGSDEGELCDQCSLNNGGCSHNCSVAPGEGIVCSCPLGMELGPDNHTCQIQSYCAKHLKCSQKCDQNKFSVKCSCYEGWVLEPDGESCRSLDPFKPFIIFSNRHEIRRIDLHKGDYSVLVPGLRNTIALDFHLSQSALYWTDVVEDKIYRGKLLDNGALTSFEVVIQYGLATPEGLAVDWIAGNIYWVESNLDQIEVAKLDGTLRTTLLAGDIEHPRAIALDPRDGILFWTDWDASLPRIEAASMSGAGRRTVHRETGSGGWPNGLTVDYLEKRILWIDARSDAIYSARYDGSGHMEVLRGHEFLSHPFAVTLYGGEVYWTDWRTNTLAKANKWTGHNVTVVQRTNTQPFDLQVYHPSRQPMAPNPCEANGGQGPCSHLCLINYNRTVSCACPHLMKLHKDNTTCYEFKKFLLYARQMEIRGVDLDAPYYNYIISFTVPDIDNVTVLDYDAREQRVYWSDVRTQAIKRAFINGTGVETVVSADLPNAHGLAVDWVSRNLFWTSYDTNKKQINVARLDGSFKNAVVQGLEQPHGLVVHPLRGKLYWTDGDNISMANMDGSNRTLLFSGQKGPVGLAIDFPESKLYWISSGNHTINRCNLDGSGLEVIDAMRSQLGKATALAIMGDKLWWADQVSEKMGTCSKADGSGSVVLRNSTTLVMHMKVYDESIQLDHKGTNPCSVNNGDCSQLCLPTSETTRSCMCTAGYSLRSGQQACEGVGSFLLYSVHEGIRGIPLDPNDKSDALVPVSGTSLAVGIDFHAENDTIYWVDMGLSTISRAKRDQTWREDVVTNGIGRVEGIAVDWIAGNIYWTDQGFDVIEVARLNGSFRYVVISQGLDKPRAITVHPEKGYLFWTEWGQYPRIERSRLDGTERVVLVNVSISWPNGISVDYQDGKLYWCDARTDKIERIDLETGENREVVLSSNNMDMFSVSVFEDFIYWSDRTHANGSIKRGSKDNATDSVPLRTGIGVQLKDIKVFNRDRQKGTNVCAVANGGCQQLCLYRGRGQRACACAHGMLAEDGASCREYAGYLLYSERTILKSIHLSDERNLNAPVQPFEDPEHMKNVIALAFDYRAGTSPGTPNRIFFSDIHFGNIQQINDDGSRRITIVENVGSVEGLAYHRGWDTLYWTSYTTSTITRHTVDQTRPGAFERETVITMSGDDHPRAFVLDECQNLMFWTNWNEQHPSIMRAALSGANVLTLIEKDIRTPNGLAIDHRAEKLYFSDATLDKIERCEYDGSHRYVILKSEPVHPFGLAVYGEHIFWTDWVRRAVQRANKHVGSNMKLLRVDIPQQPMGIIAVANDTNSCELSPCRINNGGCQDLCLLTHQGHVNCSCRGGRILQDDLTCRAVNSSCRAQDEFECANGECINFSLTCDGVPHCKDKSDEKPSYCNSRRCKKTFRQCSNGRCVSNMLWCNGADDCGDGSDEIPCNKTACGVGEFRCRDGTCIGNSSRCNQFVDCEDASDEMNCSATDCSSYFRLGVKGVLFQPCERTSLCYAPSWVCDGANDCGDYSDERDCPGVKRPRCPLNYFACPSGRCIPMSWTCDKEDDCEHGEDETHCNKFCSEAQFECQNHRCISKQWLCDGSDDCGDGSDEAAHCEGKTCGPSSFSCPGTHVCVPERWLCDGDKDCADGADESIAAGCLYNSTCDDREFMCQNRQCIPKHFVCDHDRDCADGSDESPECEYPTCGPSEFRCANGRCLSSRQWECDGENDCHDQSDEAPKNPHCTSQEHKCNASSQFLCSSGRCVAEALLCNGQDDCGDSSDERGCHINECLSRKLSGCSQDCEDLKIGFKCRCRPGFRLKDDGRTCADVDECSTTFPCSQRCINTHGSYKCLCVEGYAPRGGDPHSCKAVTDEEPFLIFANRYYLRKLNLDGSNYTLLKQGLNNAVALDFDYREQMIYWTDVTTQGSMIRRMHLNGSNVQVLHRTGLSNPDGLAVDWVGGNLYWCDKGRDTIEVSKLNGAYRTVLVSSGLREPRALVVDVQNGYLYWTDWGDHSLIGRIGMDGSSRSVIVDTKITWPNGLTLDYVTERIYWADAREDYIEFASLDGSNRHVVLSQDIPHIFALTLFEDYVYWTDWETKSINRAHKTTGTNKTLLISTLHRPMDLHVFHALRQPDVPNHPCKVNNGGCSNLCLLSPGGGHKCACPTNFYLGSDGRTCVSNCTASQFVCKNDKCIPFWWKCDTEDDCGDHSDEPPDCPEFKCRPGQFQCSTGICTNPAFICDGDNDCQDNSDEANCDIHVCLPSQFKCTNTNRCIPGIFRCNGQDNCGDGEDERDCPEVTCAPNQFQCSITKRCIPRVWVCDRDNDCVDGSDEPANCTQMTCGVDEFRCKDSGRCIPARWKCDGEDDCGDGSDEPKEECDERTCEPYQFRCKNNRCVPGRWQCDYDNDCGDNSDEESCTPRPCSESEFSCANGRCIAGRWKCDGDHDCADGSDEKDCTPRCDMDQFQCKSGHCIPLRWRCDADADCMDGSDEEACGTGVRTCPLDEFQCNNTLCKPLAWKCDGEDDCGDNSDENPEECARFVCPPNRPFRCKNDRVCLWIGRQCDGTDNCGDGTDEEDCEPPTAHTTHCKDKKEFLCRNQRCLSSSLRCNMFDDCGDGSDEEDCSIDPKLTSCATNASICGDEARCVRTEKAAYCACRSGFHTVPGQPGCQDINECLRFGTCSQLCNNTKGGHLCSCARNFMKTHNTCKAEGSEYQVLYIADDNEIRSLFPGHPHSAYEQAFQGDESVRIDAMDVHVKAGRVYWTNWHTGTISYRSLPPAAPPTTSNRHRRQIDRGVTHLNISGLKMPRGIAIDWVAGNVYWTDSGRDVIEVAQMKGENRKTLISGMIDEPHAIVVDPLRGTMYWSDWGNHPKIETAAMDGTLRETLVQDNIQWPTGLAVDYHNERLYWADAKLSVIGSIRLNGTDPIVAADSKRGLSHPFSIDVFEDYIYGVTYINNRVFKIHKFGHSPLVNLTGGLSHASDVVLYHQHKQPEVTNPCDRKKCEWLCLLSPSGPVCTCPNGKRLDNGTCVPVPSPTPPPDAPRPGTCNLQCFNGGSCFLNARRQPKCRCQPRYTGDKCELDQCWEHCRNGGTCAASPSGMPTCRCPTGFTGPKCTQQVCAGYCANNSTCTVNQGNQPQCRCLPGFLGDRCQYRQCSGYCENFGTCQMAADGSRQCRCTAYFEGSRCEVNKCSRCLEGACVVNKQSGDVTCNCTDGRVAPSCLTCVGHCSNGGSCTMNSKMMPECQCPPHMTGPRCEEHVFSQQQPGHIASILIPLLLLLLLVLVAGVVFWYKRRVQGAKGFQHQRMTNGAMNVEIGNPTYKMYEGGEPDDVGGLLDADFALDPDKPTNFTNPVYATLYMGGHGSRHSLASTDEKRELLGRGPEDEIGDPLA

Broadly, the Kd is the equilibrium constant for the complex coming apart. Low values mean higher affinity, high ones lower affinity. Regarding “SARS-CoV-2 spike protein receptor binding domain (Arg319-Phe541), his tagged (from UniProt P0DTC2 319-541) (domain or fragment)”, the Kd amounted to 0.192 µM.
